Experimental findings from article PMC10398351, “Structural and molecular insight into antibody recognition of dynamic neoepitopes in membrane tethered MUC1 of pancreatic cancer cells and secreted exosomes†” (RSC Chemical Biology, 2023) are described below.

One experiment has as its target T1, PANC-1 cell surface MUC1 (Homo sapiens, PANC-1 cells, UniProt P15941, O-glycans ST, T and/or Tn at the Thr of the Asp-Thr-Arg region, as the paper concludes).
T1 construct: MUC1, type 1 single-pass transmembrane mucin, endogenous in the human pancreatic cancer cell line PANC-1 (ATCC CRL-1469); also called endogenous MUC1 TRD; membrane-tethered MUC1; source: endogenous, on PANC-1 cells
The experiment is described as follows: flow cytometry on cells; PANC-1 cells with Alexa 488 conjugated SN-131, 2 h on ice in PBS/EDTA, without or with 10 μM MUC1-5ST (8). The note with it: one partner purified.

Experiment [1] addresses T2, MUC1 TRD on exosomes released from PANC-1 cells (Homo sapiens, PANC-1 exosomes, UniProt P15941).
T2 construct: also called exosomal MUC1 TRD-STs; cargo MUC1 TRD; source: endogenous, exosomes isolated by ultracentrifugation from PANC-1 culture supernatant
Briefly: ELISA; sandwich: exosomes from PANC-1 cells captured by coated anti-CD9 or anti-CD63 mAb, detected with AP-labelled SN-131 (1 μg/mL), room temperature. The note with it: one partner purified. A general note: In an ELISA, binding on a coated surface is turned into a signal by an enzyme label.

T1 sequence (P15941 24-1255): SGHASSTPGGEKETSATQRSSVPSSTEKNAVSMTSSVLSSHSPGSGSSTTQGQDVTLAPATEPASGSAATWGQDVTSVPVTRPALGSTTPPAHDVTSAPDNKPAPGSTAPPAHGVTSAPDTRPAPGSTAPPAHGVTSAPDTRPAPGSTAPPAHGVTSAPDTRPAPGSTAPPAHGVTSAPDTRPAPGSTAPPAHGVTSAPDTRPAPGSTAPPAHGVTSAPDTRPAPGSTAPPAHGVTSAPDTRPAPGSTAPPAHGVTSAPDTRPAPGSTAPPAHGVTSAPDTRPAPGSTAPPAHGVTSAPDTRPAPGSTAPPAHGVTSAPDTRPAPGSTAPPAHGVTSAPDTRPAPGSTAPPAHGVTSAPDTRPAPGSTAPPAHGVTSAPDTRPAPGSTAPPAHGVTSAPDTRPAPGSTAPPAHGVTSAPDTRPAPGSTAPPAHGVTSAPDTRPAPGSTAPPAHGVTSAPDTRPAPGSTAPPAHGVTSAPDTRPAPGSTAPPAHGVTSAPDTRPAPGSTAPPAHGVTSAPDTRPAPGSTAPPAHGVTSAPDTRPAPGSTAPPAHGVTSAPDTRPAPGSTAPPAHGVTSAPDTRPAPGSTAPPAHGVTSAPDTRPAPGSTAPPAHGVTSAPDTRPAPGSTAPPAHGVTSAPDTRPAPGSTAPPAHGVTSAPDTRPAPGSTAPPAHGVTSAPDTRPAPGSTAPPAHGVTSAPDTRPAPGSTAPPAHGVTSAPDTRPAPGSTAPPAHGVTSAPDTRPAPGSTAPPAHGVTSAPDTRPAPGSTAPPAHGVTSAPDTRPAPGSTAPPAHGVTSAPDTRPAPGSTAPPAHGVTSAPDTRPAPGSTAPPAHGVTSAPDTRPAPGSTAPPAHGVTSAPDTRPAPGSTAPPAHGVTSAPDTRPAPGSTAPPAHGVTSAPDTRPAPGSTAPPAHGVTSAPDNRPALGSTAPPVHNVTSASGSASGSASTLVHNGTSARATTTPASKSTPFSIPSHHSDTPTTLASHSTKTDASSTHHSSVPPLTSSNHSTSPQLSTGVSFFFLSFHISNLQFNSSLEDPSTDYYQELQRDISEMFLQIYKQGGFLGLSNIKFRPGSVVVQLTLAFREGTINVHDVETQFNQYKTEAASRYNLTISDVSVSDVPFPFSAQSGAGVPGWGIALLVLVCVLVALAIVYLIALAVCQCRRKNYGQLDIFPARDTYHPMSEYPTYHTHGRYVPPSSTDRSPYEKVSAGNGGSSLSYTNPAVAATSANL
T2 sequence (P15941 24-1255): as above

B1: Alexa488-conjugated SN-131 (antibody, V domains shown)
VH: QVQLQQSGAELARPGASVKLSCKASGYTFTNYGLSWVKQRTGQGLEWIGENHPGSGIIYHNEKFRGKATLTADKSSSTAYVQLSSLTSEDSAVYFCARSSGTRGFAYWGQGTLVTVSA
VL: DVLMTQTPLSLPVSLGDQASISCRSSQSIVHSNGNTYLEWYLQKPGQSPKLLIYKVSNRFSGVPDRFSGSGSGTDFTLKISRVEAEDLGVYYCFQGSHGPWTFGGGTKLEIK
notes: as the heavy chain of m1; Fab chains in PDB 8HRH; as the light chain of m1; IgG2a
For B1, the binding result with PANC-1 cell surface MUC1 was “binds”.

B2: AP (alkaline phosphatase) labelled SN-131 mAb (antibody, V domains shown)
VH: QVQLQQSGAELARPGASVKLSCKASGYTFTNYGLSWVKQRTGQGLEWIGENHPGSGIIYHNEKFRGKATLTADKSSSTAYVQLSSLTSEDSAVYFCARSSGTRGFAYWGQGTLVTVSA
VL: DVLMTQTPLSLPVSLGDQASISCRSSQSIVHSNGNTYLEWYLQKPGQSPKLLIYKVSNRFSGVPDRFSGSGSGTDFTLKISRVEAEDLGVYYCFQGSHGPWTFGGGTKLEIK
notes: as for B1
For the molecule B2, the binding result in experiment [1] is given as “binds”.
